Measured values as given in PMC12607895, “CD46 is a cellular receptor for species D human adenovirus” (mBio, 2025).

Molecular target: HAdV-C5 virion (human adenovirus C5 (HAdV-C5), UniProt P04133 1-952; P12538 1-571; P11818 1-581, whole virion; only the major capsid proteins listed, minor/core proteins and DNA not named)
Test: SPR; Biacore T200; CD46 or CAR amine-coupled to a CM5 chip (2,390-2,640 RU CD46, 2,380-2,870 RU CAR); whole virions as analyte, twofold series 50-12.5 µg/mL, 120 s at 30 µL/min; 25°C, HBS-EP+ (10 mM HEPES, 150 mM NaCl, 3 mM EDTA, 0.005% P20, pH 7.4); performed once
Details: both partners purified

B1: coxsackievirus and adenovirus receptor (CAR) (receptor)
chain: LSITTPEEMIEKAKGETAYLPCKFTLSPEDQGPLDIEWLISPADNQKVDQVIILYSGDKIYDDYYPDLKGRVHFTSNDLKSGDASINVTNLQLSDIGTYQCKVKKAPGVANKKIHLVVLVKPSGARCYVDGSEEIGSDFKIKCEPKEGSLPLQYEWQKLSDSQKMPTSWLAEMTSSVISVKNASSEYSGTYSCTVRNRVGSDQCLLRLNVVPPSNKAGLIAGAIIGTLLALALIGLIIFCCRKKRREEKYEKEVHHDIREDVPPPKSRTSTARSYIGSNHSSLGSMSPSNMEGYSKTQYNQVPSEDFERTPQSPTLPPAKVAAPNLSRMGAIPVMIPAQSKDGSIV
notes: coxsackievirus and adenovirus receptor (CAR), coupled to the CM5 sensor chip; also called CXADR
For B1, the Kd was 1.1 pM.
